Article doi:10.1101/2024.05.23.595586

Target: TREM2 (a.a. 19-134), biotinylated, WT (human) (UniProt Q9NZC2)
Test: BLI

Chain of TREM2 (a.a. 19-134), biotinylated, WT (human) (Q9NZC2 19-134): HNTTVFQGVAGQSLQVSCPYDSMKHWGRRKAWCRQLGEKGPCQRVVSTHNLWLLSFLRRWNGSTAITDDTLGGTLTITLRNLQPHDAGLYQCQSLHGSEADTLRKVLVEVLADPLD

Kd: 42.5 nM
Substance: oligomeric amyloid beta 42 (oAβ42) WT (peptide)
